Biological target: Plu4264 from Photorhabdus luminescens subsp. laumondii TTO1 (Photorhabdus luminescens subsp. laumondii TTO1)
Test: crystal structure

stoichiometry N: 2
Substance: Plu4264 from Photorhabdus luminescens subsp. laumondii TTO1 (natural protein)
